Tests used:
[1] = biological target: 3 plasmid ICs (as tested with N6); experiment: native gel or EMSA
[2] = biological target: 48d.cl IC, fusion version (gpCore + 48d heavy chain fusion, Fab-Fab-crosslinked K126C) (HIV-1 strain BG505); experiment: native gel or EMSA
[3] = biological target: wtA32; experiment: not stated; KD of wtA32 in Table 1, no footnote and no method told
[4] = biological target: 2mutVRC01; experiment: SPR; OpenSPR-XT; C-terminally Strep-tagged antibody immobilised on Strep-Tactin XT over biotin sensor/streptavidin/biotinylated Strep-Tag peptide; analyte monovalent gpCore or ICs; 1:1 fit model; apparent kinetic values
[5] = biological target: 3mutA32; experiment: as above
[6] = biological target: 7mutVRC01; experiment: as above
[7] = biological target: GTi divalent immunogen, Fab-Fab-crosslinked version (HIV-1 strain BG505); experiment: native gel or EMSA
[8] = biological target: GTii divalent immunogen, Fab-Fab-crosslinked version (HIV-1 strain BG505); experiment: native gel or EMSA
[9] = biological target: GTiii divalent immunogen, Fab-Fab-crosslinked version (HIV-1 strain BG505); experiment: native gel or EMSA

Sequence of 3mutA32 (heavy, as listed by the source, chain 1 of 2): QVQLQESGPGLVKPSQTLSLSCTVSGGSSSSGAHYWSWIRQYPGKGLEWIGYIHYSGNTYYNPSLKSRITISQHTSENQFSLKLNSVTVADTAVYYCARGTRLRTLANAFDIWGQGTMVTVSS
Sequence of 3mutA32 (light, as listed by the source, chain 2 of 2): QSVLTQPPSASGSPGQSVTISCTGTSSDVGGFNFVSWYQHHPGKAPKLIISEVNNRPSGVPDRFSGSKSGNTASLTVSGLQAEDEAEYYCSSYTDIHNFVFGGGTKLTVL
Sequence of wtA32 (heavy, as listed by the source, chain 1 of 2): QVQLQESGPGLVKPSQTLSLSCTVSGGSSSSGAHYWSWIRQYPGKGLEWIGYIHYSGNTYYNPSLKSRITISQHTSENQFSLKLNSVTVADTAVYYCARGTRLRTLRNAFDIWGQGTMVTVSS
Sequence of wtA32 (light, as listed by the source, chain 2 of 2): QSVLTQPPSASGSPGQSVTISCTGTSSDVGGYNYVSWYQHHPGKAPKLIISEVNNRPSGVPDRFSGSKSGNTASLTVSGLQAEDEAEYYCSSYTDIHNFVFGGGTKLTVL
Sequence of 7mutVRC01 (heavy, as listed by the source, chain 1 of 2): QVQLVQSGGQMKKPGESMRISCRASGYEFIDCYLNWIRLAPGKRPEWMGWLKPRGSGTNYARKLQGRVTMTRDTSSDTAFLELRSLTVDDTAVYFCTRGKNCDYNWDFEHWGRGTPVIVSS
Sequence of 7mutVRC01 (light, as listed by the source, chain 2 of 2): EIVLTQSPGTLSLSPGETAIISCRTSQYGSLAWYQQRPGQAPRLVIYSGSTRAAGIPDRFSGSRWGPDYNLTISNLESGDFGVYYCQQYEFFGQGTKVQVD
Sequence of 2mutVRC01 (light, as listed by the source, chain 2 of 2, other chains not shown): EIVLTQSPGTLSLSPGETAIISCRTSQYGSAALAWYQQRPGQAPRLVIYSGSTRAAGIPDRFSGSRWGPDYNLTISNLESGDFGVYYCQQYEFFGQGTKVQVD

Substance: N6 (antibody)
- stoichiometry N [1]: 1
- stoichiometry N [2]: 1

Substance: gpCore (core gp120 of strain BG505), monovalent (domain or fragment)
- Kd [3]: 0.4 nM
- Kd [4]: 200 nM
- Kd [5]: 200 nM
- Kd [6]: 7000 nM

Substance: monomeric VRC01 IgM unmutated common ancestor (UCA) (antibody)
- Kd [7]: 800 to 1000 nM
- Kd [8]: 60 nM
- Kd [9]: 25 nM

Source: paper PMC12846365
